{"source": "patent US20230159655A1", "key": {"[1]": {"biological_target": "human NT5E-Biotin (NT5E, GenbankID: NP_002517.1, position: 1-552) (human) (UniProt P21589)", "sequence (P21589 27-552 limits assumed, form in doubt)": "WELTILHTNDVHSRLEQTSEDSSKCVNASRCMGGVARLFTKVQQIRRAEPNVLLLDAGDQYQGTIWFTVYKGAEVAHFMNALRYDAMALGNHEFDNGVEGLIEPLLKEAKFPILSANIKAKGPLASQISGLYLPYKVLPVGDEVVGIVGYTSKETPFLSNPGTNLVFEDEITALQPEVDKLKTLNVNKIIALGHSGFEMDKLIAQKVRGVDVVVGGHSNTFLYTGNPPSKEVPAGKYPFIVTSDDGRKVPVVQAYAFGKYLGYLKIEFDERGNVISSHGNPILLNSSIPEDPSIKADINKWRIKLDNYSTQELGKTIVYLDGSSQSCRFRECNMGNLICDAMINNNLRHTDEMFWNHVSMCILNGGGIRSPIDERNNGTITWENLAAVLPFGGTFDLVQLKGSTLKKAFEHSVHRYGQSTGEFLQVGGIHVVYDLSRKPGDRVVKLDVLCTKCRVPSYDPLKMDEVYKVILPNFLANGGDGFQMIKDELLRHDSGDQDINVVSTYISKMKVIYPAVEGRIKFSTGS", "assay": "ELISA on SA-captured NT5E-Biotin; antibody 0.333 ug/mL diluted 1:243; replicate 2"}, "[2]": {"biological_target": "CD73 endogenously expressed on the cell surface (MDA-MB-231 cells; U87-MG cells) (UniProt P21589)", "sequence (P21589 27-549 limits assumed)": "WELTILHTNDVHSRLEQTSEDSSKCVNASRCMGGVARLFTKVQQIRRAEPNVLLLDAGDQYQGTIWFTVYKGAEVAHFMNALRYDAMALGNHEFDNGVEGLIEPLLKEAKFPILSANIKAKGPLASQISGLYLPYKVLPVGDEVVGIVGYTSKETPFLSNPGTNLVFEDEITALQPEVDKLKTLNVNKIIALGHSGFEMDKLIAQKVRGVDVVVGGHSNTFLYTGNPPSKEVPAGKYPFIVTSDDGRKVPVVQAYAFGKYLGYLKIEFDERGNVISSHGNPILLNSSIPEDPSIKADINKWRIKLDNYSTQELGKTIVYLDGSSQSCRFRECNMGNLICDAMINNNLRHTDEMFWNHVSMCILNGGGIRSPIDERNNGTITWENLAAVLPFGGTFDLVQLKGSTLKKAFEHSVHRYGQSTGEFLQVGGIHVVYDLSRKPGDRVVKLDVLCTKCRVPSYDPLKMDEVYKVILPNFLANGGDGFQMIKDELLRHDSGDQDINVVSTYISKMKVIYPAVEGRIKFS", "assay": "flow cytometry on MDA-MB-231 cells; antibody 0.41 nM"}, "[3]": {"biological_target": "CD73 endogenously expressed on the cell surface (MDA-MB-231 cells; U87-MG cells) (UniProt P21589)", "assay": "flow cytometry on MDA-MB-231 cells; antibody […]"}, "[4]": {"biological_target": "human NT5E-Biotin (NT5E, GenbankID: NP_002517.1, position: 1-552) (human) (UniProt P21589)", "assay": "ELISA on SA-captured NT5E-Biotin; antibody 0.333 ug/mL diluted 1:243; replicate 1"}, "[5]": {"biological_target": "human NT5E-Biotin (NT5E, GenbankID: NP_002517.1, position: 1-552) (human) (UniProt P21589)", "assay": "ELISA on SA-captured NT5E-Biotin; antibody 0.333 ug/mL diluted 1:9; replicate 1"}, "[6]": {"biological_target": "CD73 endogenously expressed on the cell surface (MDA-MB-231 cells; U87-MG cells) (UniProt P21589)", "assay": "flow cytometry on MDA-MB-231 cells; antibody 100.00 nM"}, "[7]": {"biological_target": "human NT5E-Biotin (NT5E, GenbankID: NP_002517.1, position: 1-552) (human) (UniProt P21589)", "assay": "ELISA on SA-captured NT5E-Biotin; antibody 0.333 ug/mL diluted 1:9; replicate 2"}, "[8]": {"biological_target": "human NT5E-Biotin (NT5E, GenbankID: NP_002517.1, position: 1-552) (human) (UniProt P21589)", "assay": "ELISA on SA-captured NT5E-Biotin; antibody 0.333 ug/mL diluted 1:81; replicate 1"}, "[9]": {"biological_target": "human NT5E-Biotin (NT5E, GenbankID: NP_002517.1, position: 1-552) (human) (UniProt P21589)", "assay": "ELISA on SA-captured NT5E-Biotin; antibody 0.333 ug/mL diluted 1:729; replicate 2"}, "[10]": {"biological_target": "human NT5E-Biotin (NT5E, GenbankID: NP_002517.1, position: 1-552) (human) (UniProt P21589)", "assay": "ELISA on SA-captured NT5E-Biotin; antibody 0.333 ug/mL; replicate 1"}, "[11]": {"biological_target": "human NT5E-Biotin (NT5E, GenbankID: NP_002517.1, position: 1-552) (human) (UniProt P21589)", "assay": "ELISA on SA-captured NT5E-Biotin; antibody 0.333 ug/mL diluted 1:3; replicate 2"}, "[12]": {"biological_target": "human NT5E-Biotin (NT5E, GenbankID: NP_002517.1, position: 1-552) (human) (UniProt P21589)", "assay": "ELISA on SA-captured NT5E-Biotin; antibody 0.333 ug/mL diluted 1:3; replicate 1"}, "[13]": {"biological_target": "CD73 endogenously expressed on the cell surface (MDA-MB-231 cells; U87-MG cells) (UniProt P21589)", "assay": "flow cytometry on MDA-MB-231 cells; antibody 0.05 nM"}, "[14]": {"biological_target": "human NT5E-Biotin (NT5E, GenbankID: NP_002517.1, position: 1-552) (human) (UniProt P21589)", "assay": "ELISA on SA-captured NT5E-Biotin; antibody 0.333 ug/mL diluted 1:729; replicate 1"}, "[15]": {"biological_target": "human NT5E-Biotin (NT5E, GenbankID: NP_002517.1, position: 1-552) (human) (UniProt P21589)", "assay": "ELISA on SA-captured NT5E-Biotin; antibody 0.333 ug/mL diluted 1:27; replicate 2"}, "[16]": {"biological_target": "human NT5E(1-552)-his (human) (UniProt P21589)", "sequence (P21589 27-552 limits assumed, form in doubt)": "as the sequence (P21589 27-552 limits assumed, form in doubt) above", "assay": "Fortebio BLI, antibody on Protein A sensor, antigen 3.125-200 nM, 37 C, 1:1 fit"}, "[17]": {"biological_target": "CD73 endogenously expressed on the cell surface (MDA-MB-231 cells; U87-MG cells) (UniProt P21589)", "assay": "flow cytometry on MDA-MB-231 cells; antibody 3.70 nM"}, "[18]": {"biological_target": "human NT5E-Biotin (NT5E, GenbankID: NP_002517.1, position: 1-552) (human) (UniProt P21589)", "assay": "ELISA on SA-captured NT5E-Biotin; antibody 0 (blank); replicate 1"}, "[19]": {"biological_target": "human NT5E-Biotin (NT5E, GenbankID: NP_002517.1, position: 1-552) (human) (UniProt P21589)", "assay": "ELISA on SA-captured NT5E-Biotin; antibody 0.333 ug/mL diluted 1:27; replicate 1"}, "[20]": {"biological_target": "human NT5E-Biotin (NT5E, GenbankID: NP_002517.1, position: 1-552) (human) (UniProt P21589)", "assay": "ELISA on SA-captured NT5E-Biotin; antibody 0.333 ug/mL diluted 1:81; replicate 2"}, "[21]": {"biological_target": "human NT5E-Biotin (NT5E, GenbankID: NP_002517.1, position: 1-552) (human) (UniProt P21589)", "assay": "ELISA on SA-captured NT5E-Biotin; antibody 0.333 ug/mL; replicate 2"}, "[22]": {"biological_target": "human NT5E-Biotin (NT5E, GenbankID: NP_002517.1, position: 1-552) (human) (UniProt P21589)", "assay": "ELISA on SA-captured NT5E-Biotin; antibody 0 (blank); replicate 2"}, "[23]": {"biological_target": "CD73 endogenously expressed on the cell surface (MDA-MB-231 cells; U87-MG cells) (UniProt P21589)", "assay": "flow cytometry on MDA-MB-231 cells; antibody 0.14 nM"}, "[24]": {"biological_target": "CD73 endogenously expressed on the cell surface (MDA-MB-231 cells; U87-MG cells) (UniProt P21589)", "assay": "flow cytometry on MDA-MB-231 cells; antibody 11.11 nM"}, "[25]": {"biological_target": "CD73 endogenously expressed on the cell surface (MDA-MB-231 cells; U87-MG cells) (UniProt P21589)", "assay": "flow cytometry on MDA-MB-231 cells; antibody 33.33 nM"}}, "data": [{"substance": "positive control antibody MEDI9447 (oleclumab)", "values": [{"measurement": "OD 450 nm", "setting": "[1]", "result": 0.528, "unit": "OD450"}, {"measurement": "fluorescence intensity (FACS)", "setting": "[2]", "result": 91}, {"measurement": "fluorescence intensity (FACS)", "setting": "[3]", "result": 267}, {"measurement": "OD 450 nm", "setting": "[4]", "result": 0.536, "unit": "OD450"}, {"measurement": "OD 450 nm", "setting": "[5]", "result": 2.27, "unit": "OD450"}, {"measurement": "fluorescence intensity (FACS)", "setting": "[6]", "result": 581}, {"measurement": "OD 450 nm", "setting": "[7]", "result": 2.28, "unit": "OD450"}, {"measurement": "OD 450 nm", "setting": "[8]", "result": 1.06, "unit": "OD450"}, {"measurement": "OD 450 nm", "setting": "[9]", "result": 0.275, "unit": "OD450"}, {"measurement": "OD 450 nm", "setting": "[10]", "result": 2.55, "unit": "OD450"}, {"measurement": "OD 450 nm", "setting": "[11]", "result": 2.6, "unit": "OD450"}, {"measurement": "OD 450 nm", "setting": "[12]", "result": 2.57, "unit": "OD450"}, {"measurement": "fluorescence intensity (FACS)", "setting": "[13]", "result": 28.4}, {"measurement": "OD 450 nm", "setting": "[14]", "result": 0.272, "unit": "OD450"}, {"measurement": "OD 450 nm", "setting": "[15]", "result": 1.74, "unit": "OD450"}, {"measurement": "S E (kdis)", "setting": "[16]", "result": "5.02e-06", "unit": "s⁻¹"}, {"measurement": "fluorescence intensity (FACS)", "setting": "[17]", "result": 454}, {"measurement": "OD 450 nm", "setting": "[18]", "result": 0.121, "unit": "OD450"}, {"measurement": "OD 450 nm", "setting": "[19]", "result": 1.77, "unit": "OD450"}, {"measurement": "OD 450 nm", "setting": "[20]", "result": 1.03, "unit": "OD450"}, {"measurement": "OD 450 nm", "setting": "[21]", "result": 2.53, "unit": "OD450"}, {"measurement": "OD 450 nm", "setting": "[22]", "result": 0.116, "unit": "OD450"}, {"measurement": "fluorescence intensity (FACS)", "setting": "[23]", "result": 43.2}, {"measurement": "fluorescence intensity (FACS)", "setting": "[24]", "result": 519}, {"measurement": "fluorescence intensity (FACS)", "setting": "[25]", "result": 546}]}]}
